Data: PMC11922060

Target: Sumo-tagged Drosophila Spd-2 C-terminal half (Spd-2 697-1146) P817D, phosphorylated in vitro by human PLK1 (UniProt Q9VV79)
Experiment: SEC-MALS
Details: 50 µM protein, phosphorylated in vitro with recombinant human PLK1 kinase; parent: est. 0.50; read off a plot

Sequence of UniProt Q9VV79 (Q9VV79 entry or part of it P817D | P817D): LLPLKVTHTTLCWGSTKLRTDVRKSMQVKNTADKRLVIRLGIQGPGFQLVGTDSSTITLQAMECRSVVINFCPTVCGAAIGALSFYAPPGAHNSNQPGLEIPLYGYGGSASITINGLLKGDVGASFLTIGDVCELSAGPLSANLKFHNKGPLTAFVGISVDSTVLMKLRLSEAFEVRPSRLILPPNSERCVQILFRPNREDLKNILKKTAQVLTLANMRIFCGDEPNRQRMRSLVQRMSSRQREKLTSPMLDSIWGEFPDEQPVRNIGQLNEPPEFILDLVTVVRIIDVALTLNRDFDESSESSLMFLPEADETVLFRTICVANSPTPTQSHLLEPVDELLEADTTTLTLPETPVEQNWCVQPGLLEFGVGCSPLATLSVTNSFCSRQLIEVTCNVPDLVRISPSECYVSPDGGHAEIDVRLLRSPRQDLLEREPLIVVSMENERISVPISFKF

Sumo-tagged Drosophila Spd-2 C-terminal half (Spd-2 697-1146), wild type, phosphorylated in vitro by human PLK1 (from UniProt Q9VV79) P817D
response: 0.14
